Experimental data from US20210395379A1 (NUMAB THERAPEUTICS, published 2021).

Tests used:
[1] = target: T1, human CD137 expressed on Jurkat cells (human, UniProt Q07011 24-255); assay: Flow cytometry on CD137 expressing Jurkat cells, detection with APC-labelled goat anti-human IgG
human serum albumin = target: T2, human serum albumin (human, UniProt P02768 25-609); assay: SPR (Biacore T200), serum albumin amine-coupled to CM5 chip, pH 5.5
T2 construct: Amine-coupled to a CM5 chip; also called human SA; HSA
Experimental: Affinity of molecules to serum albumin (SA) of the different species was determined by SPR measurements using a Biacore T200 device (GE Healthcare). SA was directly coupled to a CM5 sensor chip (GE Healthcare) using amine coupling chemistry. […] The assay was run in a 1×PBS-Tween buffer at pH 5.5.

Fc tagged human PD-L1 = target: T3, Fc tagged human PD-L1 (human, UniProt Q9NZQ7 19-238, limits assumed); assay: SPR (Biacore T200), Fc tagged PDL1 captured by anti-human Fc, molecule as analyte 0.18-45 nM
T3 construct: not shown: Fc tag
Experimental: Affinity to PDL1 was determined by SPR measurements using a Biacore T200 device (GE Healthcare). In this experiment, Fc tagged PDL1 from different species was captured using the Human Antibody Capture kit from GE Healthcare (cat. BR-1008-39). After each analyte injection cycle, the anti-human Fc-specific IgG was regenerated and new antigen was captured. For all formats, the multispecific molecules were injected as analyte using a dose response multi-cycle kinetic assay with concentrations of the analyte ranging from 0.18 to 45 nM (two-fold dilutions steps) diluted in running buffer. Association and dissociation time were set to 300 s and 720 s, respectively. The apparent dissociation (kd) and association (kₐ) rate constants and the apparent dissociation equilibrium constant (KD) were calculated using one-to-one Langmuir binding model. Affinity to CD137 of the different species was determined using the identical setup as for PDL1 with the exception that CD137-Fc chimeric proteins from different species were captured by the immobilized antibody.

[2] = target: T1, human CD137 expressed on Jurkat cells; assay: cell-based or functional assay
[3] = target: T4, human Fc-tagged CD40 (AcroBiosystems, cat. CD0-H5253) (human, UniProt P25942 21-193); assay: SPR (Biacore T200), Fc-tagged CD40 captured by anti-human Fc, scFv as analyte
T4 construct: also called human CD40; not shown: Fc tag
T4 sequence (P25942 21-193 limits assumed): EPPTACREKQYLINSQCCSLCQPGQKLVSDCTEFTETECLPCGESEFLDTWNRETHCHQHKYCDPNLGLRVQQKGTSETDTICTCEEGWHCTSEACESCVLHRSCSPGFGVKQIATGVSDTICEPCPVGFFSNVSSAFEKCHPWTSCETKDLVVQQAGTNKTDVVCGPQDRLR
Experimental: (§1) Binding of scFvs to human Fc-tagged CD40 (AcroBiosystems, cat. CD0-H5253) and human Fc-tagged OX40 (Acro-Biosystems, cat. OX0-H5255) was determined by SPR analysis on a T200 device (Biacore, GE Healthcare). In this experiment, Fc-tagged CD40 and OX40 were captured using the Human Antibody Capture kit from GE healthcare (cat. BR-1008-39). After each analyte injection cycle, the anti-human Fc-specific IgG was regenerated and new antigen was captured. The scFvs were injected as analyte using a high concentration of 180 nM of the analyte diluted in running buffer. Association and dissociation time were set to 300 s and 720 s, respectively. Obtained sensorgrams were fitted using the 1:1 binding model.

[4] = target: T5, cynomolgus monkey Fc-tagged CD137 (R&D Systems, cat. 9324-4B-100) (cynomolgus monkey, UniProt A9YYE7 24-186); assay: SPR (Biacore T200), cynomolgus Fc-tagged CD137 captured by anti-human Fc, scFv as analyte
T5 construct: also called cynomolgus CD137; CD137-Fc chimeric protein (cynomolgus); not shown: the Fc tag (and any linker) of the bought chimera (R&D Systems, cat. 9324-4B-100)
T5 sequence (A9YYE7 entry or part of it limits assumed): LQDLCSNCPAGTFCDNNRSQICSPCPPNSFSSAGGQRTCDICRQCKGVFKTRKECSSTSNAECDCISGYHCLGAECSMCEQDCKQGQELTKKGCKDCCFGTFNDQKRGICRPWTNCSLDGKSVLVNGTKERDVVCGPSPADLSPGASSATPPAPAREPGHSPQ
Experimental: (§2) In this experiment, Fc tagged human CD137 (R&D Systems, cat. 838-4B-100) was captured using the Human Antibody Capture kit from GE healthcare (cat. BR-1008-39). After each analyte injection cycle, the anti-human Fc-specific IgG was regenerated and new antigen was captured. The scFvs were injected as analyte using a dose response multi-cycle kinetic assay over the captured CD137 with concentrations of the analyte ranging from 0.19 to 45 nM (three-fold dilutions steps) diluted in running buffer. Association and dissociation time were set to 300 s and 720 s, respectively. The obtained sensorgrams were fitted using the 1:1 binding model.
Cross-reactivity to cynomolgus CD137 was measured with cynomolgus monkey Fc-tagged CD137 (R&D Systems, cat. 9324-4B-100) in a similar assay as used to measure binding to human CD137.

[5] = target: T6, Fc tagged human CD137 (R&D Systems, cat. 838-4B-100) (human, UniProt Q07011 24-186); assay: SPR (Biacore T200), Fc tagged human CD137 captured by anti-human Fc, scFv as analyte 0.19-45 nM
T6 construct: Bought Fc chimera; also called CD137 Fc chimera; human CD137 (tagged with Fc); not shown: Fc tag of the bought chimera
Experimental: as §2

[6] = target: T7, human Fc-tagged OX40 (Acro-Biosystems, cat. OX0-H5255) (human, UniProt P43489 29-216); assay: SPR (Biacore T200), Fc-tagged OX40 captured by anti-human Fc, scFv as analyte
T7 construct: also called human OX40; not shown: Fc tag
T7 sequence (looked up): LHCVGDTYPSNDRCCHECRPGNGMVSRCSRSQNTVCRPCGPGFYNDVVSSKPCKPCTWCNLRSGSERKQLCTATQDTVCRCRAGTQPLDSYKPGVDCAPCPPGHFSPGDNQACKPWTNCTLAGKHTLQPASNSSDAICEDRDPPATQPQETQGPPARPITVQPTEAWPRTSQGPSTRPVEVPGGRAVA
Experimental: as §1

[7] = target: T1, human CD137 expressed on Jurkat cells; assay: flow cytometry on CD137 expressing Jurkat cells, detection with APC labelled protein L
Experimental: 50,000 CD137 expressing Jurkat cells (or as reference cell line Jurkat cells lacking CD137 expression) were distributed to round bottom non-tissue culture treated 96 well plates. Cells were washed twice with 100 μl PBS by centrifugation at 400×g for 5 min. […] After 1 h incubation at 4° C. on a nutating mixer, cells were washed 3 times with 100 μl staining buffer and centrifugation steps of 5 min at 400×g. […] Plates were incubated 1 h at 4° C. on a nutating mixer, then washed 3 times with 100 μl of staining buffer and resuspended in a final volume of 50 μl of staining buffer. Finally, APC signal of 20,000 events per well was analyzed by flow cytometry using a Novocyte flow cytometer system (ACEA Bioscience).

[8] = target: CD137 (form used for the alanine mutants of PRO1359 not stated) (Homo sapiens (Human), UniProt Q07011 24-186, limits assumed); assay: assay not described

urelumab (antibody)
EC50 (read off the curve) [1]: 0.06 µg/mL

B1: PRO1480 (other)
chain: DIQMTQSPASLSASVGDRVTITCQASQSIGTYLAWYQQKPGKPPKLLIYRAFILASGVPSRFSGSGSGTDFTLTISSLQPEDFATYYCQSNFYSDSTTIGPNAFGTGTKVTVLGGGGGSEVQLVESGGGLVQPGGSLRLSCAASGFSFSANYYPCWVRQAPGKGLEWIGCIYGGSSDITYDANWTKGRFTISRDNSKNTVYLQMNSLRAEDTAVYYCARSAWYSGWGGDLWGQGTLVTVSSGGGGSGGGGSGGGGSGGGGSIQMTQSPSSLSASVGDRVTITCQASQSISNRLAWYQQKPGKAPKLLIYSASTLASGVPSRFSGSGSGTDFTLTISSLQPEDFATYYCQSTYYGNDGNAFGTGTKVTVLGGGGGSEVQLVESGGGLVQPGGSLRLSCAASGFSFNSDYWIYWVRQAPGKGLEWIASIYGGSSGNTQYASWAQGRFTISRDNSKNTVYLQMNSLRAEDTAVYFCARGYVDYGGATDLWGQGTLVTVSSGGGGSGGGGSIQMTQSPSSLSASVGDRVTITCQSSESVYSNNQLSWYQQKPGQPPKLLIYDASDLASGVPSRFSGSGSGTDFTLTISSLQPEDFATYYCAGGFSSSSDTAFGGGTKLTVLGGGGGSGGGGSGGGGSGGGGSEVQLVESGGGLVQPGGSLRLSCAASGFSLSSNAMGWVRQAPGKGLEYIGIISVGGFTYYASWAKGRFTISRDNSKNTVYLQMNSLRAEDTATYFCARDRHGGDSSGAFYLWGQGTLVTVSS
notes: Trispecific scDb-scFv; CD137 arm derived from 38-27-A11 sc02; also called PRO1480 (38-27-A11); trispecific anti-PDL1xCD137xHSA scDb-scFv
Kd (human serum albumin): 1030 pM
koff (human serum albumin): 0.000337 s⁻¹
Kd (Fc tagged human PD-L1): 15 pM
koff (Fc tagged human PD-L1): 5.1e-05 s⁻¹
IC50 (ng/ml), activation of NF-kB reporter gene, HCC827 + IFNg, 6 h, with HSA [2]: 6.44 ng/mL
IC50 (ng/ml), activation of NF-kB reporter gene, HCC827 + IFNg, 24 h, with HSA [2]: 4.67 ng/mL

B2: PRO1359 (38-27-A11 sc02) (scFv)
scFv: DIQMTQSPSSLSASVGDRVTITCQASQSISNRLAWYQQKPGKAPKLLIYSASTLASGVPSRFSGSGSGTDFTLTISSLQPEDFATYYCQSTYYGNDGNAFGTGTKVTVLGGGGGSGGGGSGGGGSGGGGSEVQLVESGGGLVQPGGSLRLSCAASGFSFSANYYPCWVRQAPGKGLEWIGCIYGGSSDITYDANWTKGRFTISRDNSKNTVYLQMNSLRAEDTAVYYCARSAWYSGWGGDLWGQGTLVTVSS
notes: VL-linker-VH, CDR graft, Vk1/VH3; also called anti-4-1BB scFv
binding result [3]: no binding (tested: 180 nM)
Kd [4]: 2880 pM
koff [4]: 0.00267 s⁻¹
kon [4]: 927000 M⁻¹ s⁻¹
koff [5]: 0.00281 s⁻¹
kon [5]: 866000 M⁻¹ s⁻¹
binding result [6]: no binding (tested: 180 nM)
EC50 [7]: 3.99 µg/mL
Maximum binding (relative to urelumab) [7]: 18%

B3: PRO1359 with TYR 191 mutated to alanine (scFv)
scFv: DIQMTQSPSSLSASVGDRVTITCQASQSISNRLAWYQQKPGKAPKLLIYSASTLASGVPSRFSGSGSGTDFTLTISSLQPEDFATYYCQSTYYGNDGNAFGTGTKVTVLGGGGGSGGGGSGGGGSGGGGSEVQLVESGGGLVQPGGSLRLSCAASGFSFSANYYPCWVRQAPGKGLEWIGCIYGGSSDITADANWTKGRFTISRDNSKNTVYLQMNSLRAEDTAVYYCARSAWYSGWGGDLWGQGTLVTVSS
fold reduction of affinity against unmutated PRO1359 [8]: > 1000 fold

B4: PRO1359 with TRP 233 mutated to alanine (scFv)
scFv: DIQMTQSPSSLSASVGDRVTITCQASQSISNRLAWYQQKPGKAPKLLIYSASTLASGVPSRFSGSGSGTDFTLTISSLQPEDFATYYCQSTYYGNDGNAFGTGTKVTVLGGGGGSGGGGSGGGGSGGGGSEVQLVESGGGLVQPGGSLRLSCAASGFSFSANYYPCWVRQAPGKGLEWIGCIYGGSSDITYDANWTKGRFTISRDNSKNTVYLQMNSLRAEDTAVYYCARSAAYSGWGGDLWGQGTLVTVSS
fold reduction of affinity against unmutated PRO1359 [8]: > 1000 fold

B5: PRO1360 (38-27-A11 sc03) (scFv)
scFv: DFQLTQSPSSLSASVGDRVTITCQASQSISNRLAWYQQKPGKPPKLLIYSASTLASGVPSRFSGSGSGTDFTLTISSLQPEDFATYYCQSTYYGNDGNAFGTGTKVTVLGGGGGSGGGGSGGGGSGGGGSESQLVESGGGLVQPGGSLRLSCAASGFSFSANYYPCWVRQAPGKGLEWIGCIYGGSSDITYDANWTKGRFTISRDNSKNTVYLQMNSLRAEDTAVYFCARSAWYSGWGGDLWGPGTLVTVSS
notes: VL-linker-VH, full graft, Vk1/VH3
binding result [3]: no binding (tested: 180 nM)
Kd [4]: 240 pM
koff [4]: 0.000252 s⁻¹
kon [4]: 1.05e+06 M⁻¹ s⁻¹
koff [5]: 0.0003 s⁻¹
kon [5]: 1.28e+06 M⁻¹ s⁻¹
binding result [6]: no binding (tested: 180 nM)
EC50 [7]: 0.148 µg/mL
Maximum binding (relative to urelumab) [7]: 29%
